{"source": "paper PMC3276066", "biological_target": "Encephalitozoon cuniculi TATA box binding protein, full length (Encephalitozoon cuniculi)", "data": [{"substance": "Encephalitozoon cuniculi Mot1 N-terminal domain (HEAT domain, residues 1–779) (domain or fragment)", "values": [{"measurement": "stoichiometry N", "value": "1 Mot1:TBP"}]}]}
